{"source": "patent US20220040297A1", "about": "(Chugai, published 2022)", "binders": {"B1": {"name": "GLS3000 K50Q (antibody, name in Kabat numbering, V domains shown)", "VH": "QVQLVESGGGVVQPGRSLRLSCAASGFTFSNAWMHWVRQAPGKGLEWVAQIKAKSNNYATYYAESVKGRFTISRDDSKNSLYLQMNSLKTEDTAVYYCRYVHYGAYYGVDAWGQGTTVTVSS", "VL": "DIVMTQSPLSLPVTPGEPASISCRSSQSLVHSNRNTYLHWYQQKPGQAPRLLIYQVSNRFSGVPDRFSGSGSGTDFTLKISRVEAEDVGVYYCGQGTQVPYTFGQGTKLEIK", "notes": "one-arm format as m2"}, "B2": {"name": "GLS3000 N28V (antibody, name in Kabat numbering, V domains shown)", "VH": "B1 VH", "VL": "B1 VL with N33V, Q55K", "notes": "one-arm format as m2"}, "B3": {"name": "GLS3000 N28I (antibody, name in Kabat numbering, V domains shown)", "VH": "B1 VH", "VL": "B1 VL with N33I, Q55K", "notes": "one-arm format as m2"}, "B4": {"name": "GLS3000 N28A (antibody, name in Kabat numbering, V domains shown)", "VH": "B1 VH", "VL": "B1 VL with N33A, Q55K", "notes": "one-arm format as m2"}, "B5": {"name": "GLS3000 N28T (antibody, name in Kabat numbering, V domains shown)", "VH": "B1 VH", "VL": "B1 VL with N33T, Q55K", "notes": "one-arm format as m2"}, "B6": {"name": "GLS3000 L27bY (antibody, name in Kabat numbering, V domains shown)", "VH": "B1 VH", "VL": "B1 VL with L29Y, Q55K", "notes": "one-arm format as m2"}, "B7": {"name": "GLS3000 L27bD (antibody, name in Kabat numbering, V domains shown)", "VH": "B1 VH", "VL": "B1 VL with L29D, Q55K", "notes": "one-arm format as m2"}, "B8": {"name": "GLS3000 N28P (antibody, name in Kabat numbering, V domains shown)", "VH": "B1 VH", "VL": "B1 VL with N33P, Q55K", "notes": "one-arm format as m2"}, "B9": {"name": "GLS3000 N28H (antibody, name in Kabat numbering, V domains shown)", "VH": "B1 VH", "VL": "B1 VL with N33H, Q55K", "notes": "one-arm format as m2"}, "B10": {"name": "GLS3000 L33F (antibody, name in Kabat numbering, V domains shown)", "VH": "B1 VH", "VL": "B1 VL with L38F, Q55K", "notes": "one-arm format as m2"}, "B11": {"name": "GLS3000 N28E (antibody, name in Kabat numbering, V domains shown)", "VH": "B1 VH", "VL": "B1 VL with N33E, Q55K", "notes": "one-arm format as m2"}, "B12": {"name": "GLS3000 L33M (antibody, name in Kabat numbering, V domains shown)", "VH": "B1 VH", "VL": "B1 VL with L38M, Q55K", "notes": "one-arm format as m2"}, "B13": {"name": "GLS3000 N30D (antibody, name in Kabat numbering, V domains shown)", "VH": "B1 VH", "VL": "B1 VL with N35D, Q55K", "notes": "one-arm format as m2"}, "B14": {"name": "GLS3000 L33A (antibody, name in Kabat numbering, V domains shown)", "VH": "B1 VH", "VL": "B1 VL with L38A, Q55K", "notes": "one-arm format as m2"}, "B15": {"name": "GLS3000 L27bI (antibody, name in Kabat numbering, V domains shown)", "VH": "B1 VH", "VL": "B1 VL with L29I, Q55K", "notes": "one-arm format as m2"}, "B16": {"name": "GLS3000 L27bF (antibody, name in Kabat numbering, V domains shown)", "VH": "B1 VH", "VL": "B1 VL with L29F, Q55K", "notes": "one-arm format as m2"}, "B17": {"name": "GLS3000 N28W (antibody, name in Kabat numbering, V domains shown)", "VH": "B1 VH", "VL": "B1 VL with N33W, Q55K", "notes": "one-arm format as m2"}, "B18": {"name": "GLS3000 N28S (antibody, name in Kabat numbering, V domains shown)", "VH": "B1 VH", "VL": "B1 VL with N33S, Q55K", "notes": "one-arm format as m2"}, "B19": {"name": "GLS3000 K50R (antibody, name in Kabat numbering, V domains shown)", "VH": "B1 VH", "VL": "B1 VL with Q55R", "notes": "one-arm format as m2"}, "B20": {"name": "GLS3000 L27bM (antibody, name in Kabat numbering, V domains shown)", "VH": "B1 VH", "VL": "B1 VL with L29M, Q55K", "notes": "one-arm format as m2"}, "B21": {"name": "GLS3000 N28F (antibody, name in Kabat numbering, V domains shown)", "VH": "B1 VH", "VL": "B1 VL with N33F, Q55K", "notes": "one-arm format as m2"}, "B22": {"name": "GLS3000 N30F (antibody, name in Kabat numbering, V domains shown)", "VH": "B1 VH", "VL": "B1 VL with N35F, Q55K", "notes": "one-arm format as m2"}, "B23": {"name": "GLS3000 K74T (antibody, name in Kabat numbering, V domains shown)", "VH": "B1 VH", "VL": "B1 VL with Q55K, K79T", "notes": "one-arm format as m2"}, "B24": {"name": "GLS3000 L33I (antibody, name in Kabat numbering, V domains shown)", "VH": "B1 VH", "VL": "B1 VL with L38I, Q55K", "notes": "one-arm format as m2"}, "B25": {"name": "GLS3000 L27bE (antibody, name in Kabat numbering, V domains shown)", "VH": "B1 VH", "VL": "B1 VL with L29E, Q55K", "notes": "one-arm format as m2"}, "B26": {"name": "GLS3000 K50T (antibody, name in Kabat numbering, V domains shown)", "VH": "B1 VH", "VL": "B1 VL with Q55T", "notes": "one-arm format as m2"}, "B27": {"name": "GLS3000 L27bP (antibody, name in Kabat numbering, V domains shown)", "VH": "B1 VH", "VL": "B1 VL with L29P, Q55K", "notes": "one-arm format as m2"}, "B28": {"name": "GLS3000 N28D (antibody, name in Kabat numbering, V domains shown)", "VH": "B1 VH", "VL": "B1 VL with N33D, Q55K", "notes": "one-arm format as m2"}, "B29": {"name": "GLS3000 N28Q (antibody, name in Kabat numbering, V domains shown)", "VH": "B1 VH", "VL": "B1 VL with N33Q, Q55K", "notes": "one-arm format as m2"}, "B30": {"name": "GLS3000 K107E (antibody, name in Kabat numbering, V domains shown)", "VH": "B1 VH", "VL": "B1 VL with Q55K, K112E", "notes": "one-arm format as m2"}, "B31": {"name": "GLS3000 N28K (antibody, name in Kabat numbering, V domains shown)", "VH": "B1 VH", "VL": "B1 VL with N33K, Q55K", "notes": "one-arm format as m2"}, "B32": {"name": "GLS3000 N28M (antibody, name in Kabat numbering, V domains shown)", "VH": "B1 VH", "VL": "B1 VL with N33M, Q55K", "notes": "one-arm format as m2"}, "B33": {"name": "GLS3000 L27bV (antibody, name in Kabat numbering, V domains shown)", "VH": "B1 VH", "VL": "B1 VL with L29V, Q55K", "notes": "one-arm format as m2"}, "B34": {"name": "GLS3000 N28G (antibody, name in Kabat numbering, V domains shown)", "VH": "B1 VH", "VL": "B1 VL with N33G, Q55K", "notes": "one-arm format as m2"}, "B35": {"name": "GLS3000 L33E (antibody, name in Kabat numbering, V domains shown)", "VH": "B1 VH", "VL": "B1 VL with L38E, Q55K", "notes": "one-arm format as m2"}, "B36": {"name": "GLS3000 N30E (antibody, name in Kabat numbering, V domains shown)", "VH": "B1 VH", "VL": "B1 VL with N35E, Q55K", "notes": "one-arm format as m2"}, "B37": {"name": "GLS3000 L27bW (antibody, name in Kabat numbering, V domains shown)", "VH": "B1 VH", "VL": "B1 VL with L29W, Q55K", "notes": "one-arm format as m2"}, "B38": {"name": "GLS3000 L33V (antibody, name in Kabat numbering, V domains shown)", "VH": "B1 VH", "VL": "B1 VL with L38V, Q55K", "notes": "one-arm format as m2"}, "B39": {"name": "GLS3000 K50Y (antibody, name in Kabat numbering, V domains shown)", "VH": "B1 VH", "VL": "B1 VL with Q55Y", "notes": "one-arm format as m2"}, "B40": {"name": "GLS3000 N28Y (antibody, name in Kabat numbering, V domains shown)", "VH": "B1 VH", "VL": "B1 VL with N33Y, Q55K", "notes": "one-arm format as m2"}, "B41": {"name": "GLS3000 N28L (antibody, name in Kabat numbering, V domains shown)", "VH": "B1 VH", "VL": "B1 VL with N33L, Q55K", "notes": "one-arm format as m2"}, "B42": {"name": "GLS3000 N30A (antibody, name in Kabat numbering, V domains shown)", "VH": "B1 VH", "VL": "B1 VL with N35A, Q55K", "notes": "one-arm format as m2"}, "B43": {"name": "GLS3000 L33P (antibody, name in Kabat numbering, V domains shown)", "VH": "B1 VH", "VL": "B1 VL with L38P, Q55K", "notes": "one-arm format as m2"}, "B44": {"name": "GLS3000 L33D (antibody, name in Kabat numbering, V domains shown)", "VH": "B1 VH", "VL": "B1 VL with L38D, Q55K", "notes": "one-arm format as m2"}, "B45": {"name": "GLS3000 K50S (antibody, name in Kabat numbering, V domains shown)", "VH": "B1 VH", "VL": "B1 VL with Q55S", "notes": "one-arm format as m2"}, "B46": {"name": "GLS3000 L27bS (antibody, name in Kabat numbering, V domains shown)", "VH": "B1 VH", "VL": "B1 VL with L29S, Q55K", "notes": "one-arm format as m2"}}, "note": "Changes are numbered by the printed parent chain."}
{"target": "CD3ε homodimer protein (human, UniProt P07766 23-126, limits assumed)", "sequence (P07766 23-126 limits assumed)": "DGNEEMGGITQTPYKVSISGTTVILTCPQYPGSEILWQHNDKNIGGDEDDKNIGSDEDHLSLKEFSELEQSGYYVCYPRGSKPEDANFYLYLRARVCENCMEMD", "experiment": "SPR, immobilized CD3ε homodimer;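 also: biacore T200 surface plasmon resonance at 25 °C, antibody variants flowed as analytes over amine-coupled CD3ε homodimer on a CM4 chip, variant binding amount divided by that of GLS3000 antibody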"}
{"binder": "B1", "ratio of amounts bound (vs GLS3000)": 0.18}
{"binder": "B2", "ratio of amounts bound (vs GLS3000)": 0.36}
{"binder": "B3", "ratio of amounts bound (vs GLS3000)": 0.44}
{"binder": "B4", "ratio of amounts bound (vs GLS3000)": 0.25}
{"binder": "B5", "ratio of amounts bound (vs GLS3000)": 0.45}
{"binder": "B6", "ratio of amounts bound (vs GLS3000)": 0.25}
{"binder": "B7", "ratio of amounts bound (vs GLS3000)": 0.17}
{"binder": "B8", "ratio of amounts bound (vs GLS3000)": 0.36}
{"binder": "B9", "ratio of amounts bound (vs GLS3000)": 0.42}
{"binder": "B10", "ratio of amounts bound (vs GLS3000)": 0.78}
{"binder": "B11", "ratio of amounts bound (vs GLS3000)": 0.4}
{"binder": "B12", "ratio of amounts bound (vs GLS3000)": 0.93}
{"binder": "B13", "ratio of amounts bound (vs GLS3000)": 0.34}
{"binder": "B14", "ratio of amounts bound (vs GLS3000)": 0.85}
{"binder": "B15", "ratio of amounts bound (vs GLS3000)": 1.19}
{"binder": "B16", "ratio of amounts bound (vs GLS3000)": 0.42}
{"binder": "B17", "ratio of amounts bound (vs GLS3000)": 0.41}
{"binder": "B18", "ratio of amounts bound (vs GLS3000)": 0.32}
{"binder": "B19", "ratio of amounts bound (vs GLS3000)": 0.5}
{"binder": "B20", "ratio of amounts bound (vs GLS3000)": 0.71}
{"binder": "B21", "ratio of amounts bound (vs GLS3000)": 0.46}
{"binder": "B22", "ratio of amounts bound (vs GLS3000)": 1.1}
{"binder": "B23", "ratio of amounts bound (vs GLS3000)": 0.84}
{"binder": "B24", "ratio of amounts bound (vs GLS3000)": 0.83}
{"binder": "B25", "ratio of amounts bound (vs GLS3000)": 0.17}
{"binder": "B26", "ratio of amounts bound (vs GLS3000)": 0.19}
{"binder": "B27", "ratio of amounts bound (vs GLS3000)": 0.91}
{"binder": "B28", "ratio of amounts bound (vs GLS3000)": 0.19}
{"binder": "B29", "ratio of amounts bound (vs GLS3000)": 0.37}
{"binder": "B30", "ratio of amounts bound (vs GLS3000)": 0.94}
{"binder": "B31", "ratio of amounts bound (vs GLS3000)": 0.44}
{"binder": "B32", "ratio of amounts bound (vs GLS3000)": 0.39}
{"binder": "B33", "ratio of amounts bound (vs GLS3000)": 1.12}
{"binder": "B34", "ratio of amounts bound (vs GLS3000)": 0.46}
{"binder": "B35", "ratio of amounts bound (vs GLS3000)": 0.72}
{"binder": "B36", "ratio of amounts bound (vs GLS3000)": 0.44}
{"binder": "B37", "ratio of amounts bound (vs GLS3000)": 0.26}
{"binder": "B38", "ratio of amounts bound (vs GLS3000)": 1.05}
{"binder": "B39", "ratio of amounts bound (vs GLS3000)": 0.24}
{"binder": "B40", "ratio of amounts bound (vs GLS3000)": 0.26}
{"binder": "B41", "ratio of amounts bound (vs GLS3000)": 0.39}
{"binder": "B42", "ratio of amounts bound (vs GLS3000)": 0.5}
{"binder": "B43", "ratio of amounts bound (vs GLS3000)": 0.3}
{"binder": "B44", "ratio of amounts bound (vs GLS3000)": 0.17}
{"binder": "B45", "ratio of amounts bound (vs GLS3000)": 0.23}
{"binder": "B46", "ratio of amounts bound (vs GLS3000)": 0.71}
